In the supplement of paper PMC12764529:
± gives the half width of the 95% confidence interval.

Key:
[1] = folding stability dG unfold from trypsin proteolysis; higher = more stable
Method in brief: (§1)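 Designed mini-proteins (under 80 residues, no cysteine) in a PA-tagged cDNA display construct were digested with trypsin and chymotrypsin. Each protease was used at 11 concentrations (threefold dilutions) plus a no-protease condition, followed by sequencing. K50 was inferred by Bayesian fitting of sequencing counts, and unfolding free energy was derived against a sequence-predicted unfolded-state K50 and a shared folded-state K50, per protease or combined. Only designs with AlphaFold2 dimer inter-PAE above 15 were kept.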

[2] = folding stability dG unfold from chymotrypsin proteolysis; higher = more stable
Method in brief: as §1

[3] = folding stability dG unfold (combined trypsin and chymotrypsin); higher = more stable
Method in brief: as §1

| Sequence | folding stability dG unfold [1] [kcal/mol] | folding stability dG unfold [2] [kcal/mol] | folding stability dG unfold [3] [kcal/mol] |
| --- | --- | --- | --- |
| SAGGSAGGSAPMKIDEITDVYPNPNRPKIIIKWRGPNGQPMVFDPENGKWMTPEEALDALKSAGGSAGGSAG [r3_206_TrROS] | 0.571 ± 0.059 | 1.12 ± 0.062 | 0.935 ± 0.046 |
| SAGGEKEEIIKKLSKYPKNYRVLLKSPDGTLYEYSSPEEVIKMPLTLPNGKEVIIVKISPEKSPKLLSAGGS [r16_680_JUSTAS] | 0.438 ± 0.091 | 0.836 ± 0.098 | 0.758 ± 0.099 |
| SAGGSAGGSMKIKIEVDKETGYIVIEAEPGETIEIEIGGKKIKMEVIENEDGSLYFVFKIEKPSAGGSAGGS [r12_970_TrROS_Hall] | 2.23 ± 0.12 | 4.06 ± 0.085 | 3.6 ± 0.24 |
| SAGGMKIEIVEVTPTRIRIRLENGEVLTLEEIRKLLEEEGLPEPMTVDQIAELLRKRGLKITEIEIVPSAGG [r13_610_TrROS_Hall] | 2.97 ± 0.052 | 3.274 ± 0.025 | 3.18 ± 0.083 |
| SAGGSAGGSAGLFPGPENIPKVSITPFEVENPLDDYTVTLYRVDFPDLGLSLPAALVSKRSAGGSAGGSAGG [r17_31_TrMRF] | 0.698 ± 0.15 | 1.6 ± 0.07 | 1.36 ± 0.16 |
| SAGGSAGGSMVYTPPEVLTPVREVTITVTTSSYSPSGGTPVTSTSTVPVLVYKDPSGRTAIVPPSAGGSAGG [r6_278_JUSTAS] | -0.0213 ± 0.072 | 0.195 ± 0.19 | 0.159 ± 0.11 |
| SAGGSAGGSAGGKPFKVLSVEPLEIGDKKYLRVRFEDGRVYEFPVSFDFGPDGNNVLPVESAGGSAGGSAGG [r7_931_TrMRF] | 1.93 ± 0.041 | 2.59 ± 0.045 | 2.37 ± 0.043 |
| SATMLDYILDMAREQQEKNGKPVPITITIPVRRDPNGKFRMNEIHEELIKALKEAFPNVPIKIEMVPPPSAG [r14_636_TrROS] | 2.23 ± 0.076 | 2.27 ± 0.036 | 2.28 ± 0.12 |
| SAGGSAKDILDQLKISDVHESNGMRTITLEMPGNNLPPDEIREIFEELGYEVEINPKNGRITFTIPSAGGSA [r15_599_TrROS] | 2.09 ± 0.051 | 1.83 ± 0.02 | 1.95 ± 0.039 |
| SAGGSAGGSGMKTLTIEFPNVTLEEAKEAVLKLLEELGLEPIPLEKVTITYHPENPNVITVVESAGGSAGGS [r12_122_JUSTAS] | 1.5 ± 0.098 | 1.14 ± 0.12 | 1.35 ± 0.17 |
| SAMSAEELAERLRERLKKLAEEEGLEVEITVTVEENEDGSLTVTITVKSEEEAERIKEKLPEGVKVEKKSAG [r14_491_TrROS_Hall] | 1.43 ± 0.054 | 2.37 ± 0.1 | 2.14 ± 0.21 |
| SAGGMSVVIPVRPEDREEVRELLEALPSEDVKVVIYNPVTGEKREVTPEEARALLEATDEPLVIEVRSAGGS [r16_263_TrMRF] | 1.68 ± 0.046 | 1.89 ± 0.023 | 1.84 ± 0.041 |
| SAGGSAGGSAGMVVTINDPKKAKKIDENSVITIPDGKKYKVVKVEVDEKNGYWTLTIEPLSAGGSAGGSAGG [r11_316_JUSTAS] | 1.09 ± 0.055 | 2.55 ± 0.051 | 2.18 ± 0.15 |
| SAGGAPVGKFKFELNFPELGENVRSVEATVDPVKGTVTVNFELPGSGKPLTLTVPVKLVSPDNPELFSAGGS [r8_193_TrMRF] | 0.37 ± 0.059 | 0.759 ± 0.12 | 0.613 ± 0.082 |
| SAGMLGEEAIKDVKLELKEAPENEELVFEDTFPVGDKIARIRIVLKLPKNGGYEIKDIPIEVMAPEEAESAG [r5_96_TrMRF] | -0.469 ± 0.27 | -0.177 ± 0.42 | < -1 |
| SAGGSAGGSHEIIIRVDSPEDAIEQAKSILRDHGIPEGFEPVPIEVLERDPNNGYYYVQIEVKSAGGSAGGS [r12_999_TrROS] | 0.601 ± 0.026 | -0.453 ± 0.077 | 0.178 ± 0.1 |
| SAGSSMSSTVRVEVTLTNPVTEVSPDGKTYTTPGDTVAVPVLINVSTTTYYNSSNPSDVVTETTTTVALSAG [r14_274_JUSTAS] | 1.07 ± 0.026 | 1.22 ± 0.19 | 1.18 ± 0.09 |
| SAGWRMTIWVQYELPPGMPPERAKEAVRDIIRDIMRRFGLPMPPGMKIDIEPVEPSNDYVYYKVTIEFPSAG [r14_735_TrROS] | 4.37 ± 0.26 | 5.52 ± 0.15 | 5.22 ± 0.33 |
| SAGGNMWEQIRMIVRELAKEGHPWITFDKIHKELGRPITPEWREWLRDAGFIEHDPNGSMTFRIPPGASAGG [r13_188_TrROS] | 1.36 ± 0.032 | 0.89 ± 0.1 | 1.17 ± 0.056 |
| SAGGSAGGSSDEPLVIPVTAVFVNPETGEVTVARAEVRLPPDGGLEVDVEVEVREVEPDAPLLSAGGSAGGS [r12_116_TrMRF] | 0.964 ± 0.025 | 1.47 ± 0.036 | 1.2 ± 0.14 |
| SAKKKVVVEIEIPKEDMSKEEVKEALREAAKELGLELPEEEIEKLVEEARKKGLSIEEVLRKLKEEGLLSAG [r14_364_TrROS_Hall] | 0.693 ± 0.056 | 1.47 ± 0.054 | 1.12 ± 0.12 |

| Sequence | folding stability dG unfold [1] [kcal/mol] | folding stability dG unfold [2] [kcal/mol] | folding stability dG unfold [3] [kcal/mol] |
| --- | --- | --- | --- |
| SAGGSAGGSPKIEIEQDPNGWWRVKIRPPDGKKRPINIPPGDPEKILDEAEENGWKIDEIEPWSAGGSAGGS [r12_891_TrROS] | -0.045 ± 0.2 | 0.631 ± 0.14 | 0.404 ± 0.12 |
| SAGGSAGGSASVVVTKETLPNGETRITTTTTTTTTVTVYDNNETVTTTTTTTTTTVVPKSLLSAGGSAGGSA [r18_34_JUSTAS] | 0.601 ± 0.055 | 1.66 ± 0.039 | 1.38 ± 0.084 |
| SAGTIRIVVPAEELSDEEIEALAEELRKLFPNAKIVRVERRVETLPDGRKRTYVVLEIHIELPPPPEEESAG [r5_835_TrROS_Hall] | 4 ± 0.13 | 4.33 ± 0.12 | 4.26 ± 0.14 |
| SAGGSVKIKIKVPKDNPEAKKLAEKLRKLPGVKEVKVKKVKEINGYLVLEIEVEVSPEVKEKLKELLSAGGS [r16_394_TrROS_Hall] | 2.71 ± 0.25 | 2.75 ± 0.18 | 2.97 ± 0.34 |
| SAGGSEFPLRITDIHILGGYIVITFQVPPGLDKLEIKIKIELGGKPIEVTMEYTPGNGYMTMIIRLSAGGSA [r2_261_TrROS] | 4.46 ± 0.21 | 5.52 ± 0.14 | 5.57 ± 0.31 |
| SAGMSPELLEALRKAAEEEGLEVVEIKVEKLPNGEVKITIRLKNGKEIKEITLPKDVKTPEEALKLIRESAG [r5_352_TrROS_Hall] | 4.82 ± 0.34 | 4.04 ± 0.081 | 4.31 ± 0.1 |
| SAGGSVVPASEPVTIPDTATGTTLTLPTPAGATITPDPATNTTTVTFTDGDRASSVTFVNGAATSASTASAG [r5_22_JUSTAS] | -0.53 ± 0.098 | -0.139 ± 0.21 | -0.162 ± 0.11 |
| SAGGSGPSAPRTLTLDLPELPPGVKITVTVDFPGGRTFTGGVTERTATVDLPVPDGLEVESVTVQLESAGGS [r16_179_JUSTAS] | 0.00568 ± 0.1 | 0.00426 ± 0.16 | 0.0729 ± 0.085 |
| SAGGSAGGMKAVITQPPDGTATVEIYDETTGKTTTKTIPADQPEEIEALIAGKVDEVTTTPAPASAGGSAGG [r6_640_JUSTAS] | 2.09 ± 0.12 | 1.35 ± 0.1 | 1.76 ± 0.095 |
| SAPVRGPDGSVFEVDDITFDPDTRTVTVTTPEGTYTFPVPPGWVVEFDPVTKEITVRPLPDLSPENNPFPSA [r9_551_TrMRF] | 2.54 ± 0.15 | 2.84 ± 0.06 | 2.79 ± 0.097 |
| SAGIEEVAKEIAETLEELLPSEYKILDAKAIPLPDDVVIVPITVQKFDPNGKPLGELQFVVVIPPGEASAGG [r19_28_TrMRF] | 0.639 ± 0.068 | 0.519 ± 0.096 | 0.636 ± 0.062 |
| SAGGSPEIPKDYEVIEIDAETLPDGSVLIPIIVRDPIIPYYLKMYYRSIPTRWEPISFELIHPDELSAGGSA [r2_371_TrMRF] | 1.25 ± 0.018 | 1.61 ± 0.085 | 1.45 ± 0.057 |
| SAGGSAGGSAGAEELAKALAEELNVEVEVEVVEVEEPEVEVTEERRLPPAPEEVTIEEDESAGGSAGGSAGG [r11_753_TrROS_Hall] | -0.129 ± 0.074 | 1.32 ± 0.092 | 0.939 ± 0.12 |
| SAGGEPVLVPVKGTFENPELGVKVEVEAYFFPEFDFALVNVKVTPYSPDGKPLEVEGTFVVSVSELLKSAGG [r13_807_TrMRF] | 2.02 ± 0.082 | 3.16 ± 0.086 | 2.75 ± 0.12 |
| SAGGSAMPVVEIEIEVSEEEAEELVKKLKELFPEVEEVEVERTEDGLRIRVRVKLPPLTEEELKAKSAGGSA [r15_166_TrROS_Hall] | 1.17 ± 0.026 | 0.987 ± 0.042 | 1.04 ± 0.054 |
| SAGPEPDWVYIKAKVDKGGIKIEWYNPDGPWEFKLPDGEEIYIFIPPGGSPEDMLDEFKNFAKELADKSAGG [r19_170_TrROS] | 1.41 ± 0.22 | 2.1 ± 0.21 | 2.18 ± 0.71 |
| SAGGSAGGSAMETYEIEVNGKLITITRSEDGTYKITDKDTGKTITIPAEDLKKLKPGDKLLSAGGSAGGSAG [r3_256_TrROS_Hall] | 1.79 ± 0.078 | 2.18 ± 0.036 | 2.15 ± 0.14 |
| SAGGSAGGSAGGVKPGQKVKVEIDGKTYEATVDEKNGTIYVTLPNGKKYKAKIVKVEKVSAGGSAGGSAGGS [r10_1185_TrROS_Hall] | 1.79 ± 0.18 | 2.64 ± 0.05 | 2.38 ± 0.12 |
| SAGGSAGGSAGTIRIKTKDGKTIEIELEGLSDEELENPEVLAEIKKALEDAGFEIVEVEPSAGGSAGGSAGG [r11_467_TrROS_Hall] | 2.19 ± 0.061 | 2.04 ± 0.054 | 2.09 ± 0.078 |
| SAGGIKIHVEREGNYYRIKIKWPNNNEISIPFDSPEDAEEQAEEQLQKQFPNMPPENVKIDEIEPYPPSAGG [r13_887_TrROS] | 0.173 ± 0.11 | 0.504 ± 0.15 | 0.469 ± 0.099 |
| QEIPIKELIKEALENGRPIVFPNGMEITDINPDGSITVKMPYYNPDDPGQPVQPVEMQIKIDEDGRIEVEFS [r1_284_TrROS] | 0.96 ± 0.12 | 1.76 ± 0.054 | 1.45 ± 0.12 |
